# Measurements reported in US20240368668A1, “SUBSTRATES AND BIOMARKERS OF ADAMTS7” (The Broad Institute, Inc., priority 2021, published 2024).
# Square brackets hold non-standard residues; d marks the D form. Ends that are not written are not given here.
# Molecular target: T1, mouse ADAMTS7 (Mus musculus, UniProt Q68SA9)
# T1 construct: Full-length mouse Adamts7 1-1857 (Uniprot Q68SA9, WT or E373Q catalytic mutant); expressed in transfected cells; host or cells: Human Coronary Artery Smooth Muscle Cells (HCA-SMC, Lonza), adenovirus 50 MOI
# T1 sequence (Q68SA9 221-1657): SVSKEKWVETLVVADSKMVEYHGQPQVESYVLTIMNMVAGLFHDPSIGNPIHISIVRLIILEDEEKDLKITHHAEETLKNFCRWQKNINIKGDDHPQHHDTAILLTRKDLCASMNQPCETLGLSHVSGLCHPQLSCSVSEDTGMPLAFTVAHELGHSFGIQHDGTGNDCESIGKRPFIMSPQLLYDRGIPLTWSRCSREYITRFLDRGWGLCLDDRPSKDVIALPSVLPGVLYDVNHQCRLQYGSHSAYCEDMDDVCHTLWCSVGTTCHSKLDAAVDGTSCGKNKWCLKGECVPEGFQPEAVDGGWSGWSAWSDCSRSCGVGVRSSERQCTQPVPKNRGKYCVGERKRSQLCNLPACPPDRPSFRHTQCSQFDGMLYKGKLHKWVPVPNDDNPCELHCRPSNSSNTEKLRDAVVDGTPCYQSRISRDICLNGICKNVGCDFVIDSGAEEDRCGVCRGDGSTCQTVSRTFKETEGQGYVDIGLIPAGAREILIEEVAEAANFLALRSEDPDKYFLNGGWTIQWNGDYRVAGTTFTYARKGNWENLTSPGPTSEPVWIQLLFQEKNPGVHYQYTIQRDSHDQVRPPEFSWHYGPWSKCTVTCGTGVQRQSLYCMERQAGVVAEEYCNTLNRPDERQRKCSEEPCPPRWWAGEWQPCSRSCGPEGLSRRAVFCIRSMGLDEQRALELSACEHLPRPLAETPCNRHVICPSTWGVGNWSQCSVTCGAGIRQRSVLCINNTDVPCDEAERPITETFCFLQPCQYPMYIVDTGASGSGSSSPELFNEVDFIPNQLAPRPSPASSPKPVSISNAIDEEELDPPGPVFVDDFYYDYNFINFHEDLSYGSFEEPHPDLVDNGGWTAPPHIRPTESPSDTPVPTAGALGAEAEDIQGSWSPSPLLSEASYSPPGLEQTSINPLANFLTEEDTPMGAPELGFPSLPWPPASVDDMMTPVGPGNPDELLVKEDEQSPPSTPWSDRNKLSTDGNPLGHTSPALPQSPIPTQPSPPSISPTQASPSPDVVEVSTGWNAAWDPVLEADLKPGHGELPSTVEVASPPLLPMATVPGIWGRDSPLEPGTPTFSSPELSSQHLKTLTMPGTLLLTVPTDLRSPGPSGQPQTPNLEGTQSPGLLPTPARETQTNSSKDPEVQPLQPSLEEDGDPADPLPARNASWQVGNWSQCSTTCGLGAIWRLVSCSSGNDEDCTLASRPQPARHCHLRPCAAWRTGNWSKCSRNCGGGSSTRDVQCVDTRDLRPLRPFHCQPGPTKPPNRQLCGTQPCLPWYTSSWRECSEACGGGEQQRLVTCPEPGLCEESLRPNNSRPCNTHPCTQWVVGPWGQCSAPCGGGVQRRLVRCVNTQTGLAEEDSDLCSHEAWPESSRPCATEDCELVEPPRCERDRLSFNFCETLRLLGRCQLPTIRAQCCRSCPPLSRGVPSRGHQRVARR
# Assay: TMT10 TAILS N-terminomics, SMC2 experiment (process replicates, trypsin/AspN digest)
# Format: cell-based
# Conditions: SMC2_TAILS HC; log fold change of N-terminal peptide, Ad-mADAMTS7 WT over Luc
# Excerpt: ADAMTS7 Expression, Cell Culture and Preparation of the Secreted Proteins—Full-length mouse Adamts7 1-1857 (Uniprot Q68SA9, WT or E373Q catalytic mutant) with a carboxyl terminal 3xFLAG tag was used to generate custom adenoviruses as previously described. Adeno-CMV-Luciferase (Ad-Luc) from Vector Biolabs was used as a negative control. Human Coronary Artery Smooth Muscle Cells (HCA-SMC) were obtained from Lonza and expanded in Lonza SmGM-2 media in 15 cm tissue culture plates. Twenty-four hours before media collection, near confluent plates were transduced with 50 MOI adenovirus and switched to Lonza Basal SM media with volumes of 20 ml per 15 cm plate. Expression of the Flag tagged ADAMTS7 was confirmed from the media using western blot and detected using the anti-Flag M2-HRP antibody (Sigma, A8592). Collected media was processed by adding protease inhibitors (1 mM EDTA and 1 mM PMSF) and clarified by 500 g×5 min spin at 4 C to pellet cell debris. Cell media supernatants were then passed through a 0.22 um filter and kept chilled. Processed media was then concentrated 50-100× using 3 kDa Centricon Plus-70 filter unit, spun at 3,500 g×60 min at 4 C. Approximately 10% of the processed, concentrated media was set aside for total secretome proteolytic analysis. The remaining 90% of the processed, concentrated media was buffer exchanged into 50 mM HEPES pH 8.0, 150 mM NaCl (2×50 ml) using the 3 kDa Centricon Plus-70 filter unit and concentrated to >2 mg/ml to serve as input for the TAILS experiment. Secretome and TAILS input samples were stored at −80° C.
# For the first experiment, referred to as SMC1, 120 ml of media from 6×15 cm dishes was pooled from each condition (Luc, WT, EQ) and processed to produce three separate inputs for the TAILS experiment. Luc, WT and EQ inputs from the SMC1 experiment were each divided into triplicate 400 ug samples to generate technical replicate TAILS data. For the second experiment, referred to as SMC2, media was processed separately in triplicate for each condition (Luc1, Luc2, Luc3, WT1, WT2, WT3, EQ1, EQ2, EQ3) using 60 ml of media from 3×15 cm dishes for each process replicate. Inputs from the SMC2 experiment used process replicates of 300 ug each to generate TAILS data. The third experiment used input from cultured Human umbilical vein endothelial cells (HUVEC) from Lifeline Cell Technology grown in VascuLife Media and transduced in Lifeline Basal EC (+bFGF2 10 ng/ml). The HUVEC experiment used the same strategy as the SMC2 experiment, with 40 ml of media from 2×15 cm dishes for each process replicate and used 200 ug each to generate TAILS data. Inputs for process replicate experiments were restricted to the lowest concentration from the 9 parallel samples for SMC2 or HUVEC.
# TMT10 isotopic labeling and negative selection of non-labeled peptides-Sample preparation was performed based on the TAILS protocol from the Overall lab with some modifications. From a single experiment, nine parallel protein samples in 50 mM HEPES pH 8.0, 150 mM NaCl were separately denatured with guanidinium chloride (Sigma, G4505) to reach a final concentration of 2.5M guanidinium chloride and 250 mM HEPES and incubated at 65° C. for 15 min. Reduction was achieved through addition of tris(2-carboxylethyl) phosphine (TCEP) at a final concentration of […] and incubated at 65° C. for 45 min. Alkylation reaction was performed with addition of iodoacetamide (IAA, Sigma, A3221) to a final concentration of 10 mM IAA for 15 min at room temperature in the dark. Following denaturation, reduction and alkylation steps, ten percent of each of the nine parallel protein samples was removed and combined to serve as a pooled reference. Isobaric tags were added to free amine groups using the TMT10plex Isobaric Mass Tagging Kit (ThermoFisher, 90113) with TMT channels randomly assigned to the nine samples and TMT 131 assigned to the pooled reference. […]
row,Substance,logFC.mWT.over.Luc
1,LTBP1_393 (LTATNFR; listed as Homo sapiens),6.60
2,LTBP1_540 (HQQVIPHVYPVAAKTQLGR; listed as Homo sapiens),1.82
3,LOXL1_219 (VASAGVIYPYQPR; listed as Homo sapiens),1.56
4,LOXL2_37 (FQQPAPEYHQPQAPANVAKIQLR; listed as Homo sapiens),3.27
5,LOXL2_38 ([code q]QPAPEYHQPQAPANVAKIQLR; not fully specified; listed as Homo sapiens),1.74

# Same assay, conditions: SMC2_TAILS HC; log fold change, mWT over Luc
row,Substance,logFC.mWT.over.Luc
1,FBLN2_260 (LGPPAPVQAKAR; listed as Homo sapiens),1.98
2,GSN_413 (HIANVER; listed as Homo sapiens),1.91
3,HSPG2_2331 (ANLAYPAGSTQPIR; listed as Homo sapiens),1.72
4,FBN1_53 (LKGPNVCGSR; listed as Homo sapiens),4.64
5,HSPG2_2333 (LAYPAGSTQPIR; listed as Homo sapiens),1.19
6,EFEMP1_124 (AVAGPEMQTGR; listed as Homo sapiens),2.81
7,CCDC80_66 (LEEPNLQPLQR; listed as Homo sapiens),2.08
8,FN1_1656 (SSSPVTGYR; listed as Homo sapiens),1.20
9,IGFBP3_31 (SAGLGPVVR; listed as Homo sapiens),2.12
10,LOX_124 (WFQAGYSTSR; listed as Homo sapiens),3.35
11,FLNA_1285 (LTQTGGPHVKAR; listed as Homo sapiens),4.37
12,FBN1_29 (LEAGNVKETR; listed as Homo sapiens),3.33
13,FN1_40 (QSPVAVSQSKPGCYDNGKHYQINQQWER; listed as Homo sapiens),2.60
14,EFEMP1_125 (VAGPEMQTGR; listed as Homo sapiens),1.43
15,FBLN2_259 (ALGPPAPVQAKAR; listed as Homo sapiens),1.61
16,AEBP1_37 (FLEGFLSELEPEPR; listed as Homo sapiens),3.21
17,IGFBP7_101 (AAGGPGVSGVCVCKSR; listed as Homo sapiens),2.53
18,LOX_58 (LSLGSQYQPQR; listed as Homo sapiens),1.68
19,FN1_36 (MVQPQSPVAVSQSKPGCYDNGKHYQINQQWER; listed as Homo sapiens),3.59
20,LOX_126 (QAGYSTSR; listed as Homo sapiens),2.77
21,IGFBP3_32 (AGLGPVVR; listed as Homo sapiens),4.68
22,HSPG2_275 (LLPGSVR; listed as Homo sapiens),1.74
23,LOX_123 (HWFQAGYSTSR; listed as Homo sapiens),1.37
24,FN1_1143 (LTPGVEYVYTIQVLR; listed as Homo sapiens),2.31
